In patent US20250115663A1 (CELLDEX THERAPEUTICS, published 2025):

T1: kappa-sCD40(1-94)-Flag mutant fragment D (multiple mutations of residues 33-36) (human, UniProt P25942 21-114)
T1 construct: The text says only multiple mutations of residues 33-36 (human to mouse differences); that mutant D carries exactly these is inferred; also called D (33-36); not shown: N-terminal human kappa light chain; C-terminal Flag tag
T1 chain: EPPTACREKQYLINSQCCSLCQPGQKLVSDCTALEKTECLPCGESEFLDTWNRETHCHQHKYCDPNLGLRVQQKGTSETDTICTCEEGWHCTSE

T2: kappa-sCD40(1-94)-Flag point mutant E33A (human, UniProt P25942 21-114)
T2 construct: not shown: N-terminal human kappa light chain; C-terminal Flag tag
T2 chain: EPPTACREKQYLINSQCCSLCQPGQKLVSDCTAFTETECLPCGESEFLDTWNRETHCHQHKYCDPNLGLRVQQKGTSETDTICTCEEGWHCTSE


Experiments:
[1] = molecular target: T3, soluble human CD40-MsIgG2a (human, UniProt P25942); experiment: BLI (Octet QKe), antibody captured on anti-human Fc (AHC) biosensors, analyte soluble human CD40-MsIgG2a 3.13 to 0.098 nM, 25 C, 1:1 fit; column head kdis(1/s)
T3 construct: soluble, fused to mouse IgG2a; also called recombinant human CD40-msG2a chimeric protein; CD40-MsIgG2a (Celldex, 60 kD by SDS-PAGE)
Experimental: Purified antibodies from Example 1 were captured on Anti-Human Fc Capture (AHC) biosensors (Fortebio Product No. 18-5060). Each antibody was prepared in dilution buffer (10mMPO4+150 mM NaCl+1 mg/mL BSA+0.5% Tween 20, pH 7.2) to 0.5 μg/mL and loaded on freshly hydrated AHC biosensors for 35-50 sec at 25° C. and 1000 rpm plate shake speed to achieve a target response of 0.2 nm. Low levels of ligand were captured to limit any effects of mass transport of analyte on kinetic parameters. For one assay, eight biosensors were loaded with the same antibody.
Binding was determined by exposing six of the antibody loaded biosensors to analyte: soluble human CD40-MsIgG2a (Celldex, 60 kD by SDS-PAGE). Affinity measurements were determined using 2-fold serial dilutions of analyte ranging from 3.13 to 0.098 nM in dilution buffer at 25° C. and 1000 rpm plate shake speed. Association of the antibody loaded biosensors in analyte wells was carried out for 1200 seconds, the biosensors were then moved to dilution buffer wells for 2.5 hrs (9000 sec) for dissociation measurements.
Fortebio's Data Analysis Software version 8.2.0.7 (Pall ForteBio, Menlo Park, CA) was used in each case to derive kinetic parameters from the concentration series of analyte in dilution buffer binding to captured antibody. The association and dissociation curves were fitted to a 1:1 binding model using the data analysis software according to the manufacturer's guidelines.

[2] = molecular target: T1, kappa-sCD40(1-94)-Flag mutant fragment …; experiment: ELISA, mutated kappa-sCD40(1-94)-Flag captured on anti-Flag
[3] = molecular target: T2, kappa-sCD40(1-94)-Flag point mutant E33A; experiment: as above

T3 sequence (P25942 21-193 limits assumed): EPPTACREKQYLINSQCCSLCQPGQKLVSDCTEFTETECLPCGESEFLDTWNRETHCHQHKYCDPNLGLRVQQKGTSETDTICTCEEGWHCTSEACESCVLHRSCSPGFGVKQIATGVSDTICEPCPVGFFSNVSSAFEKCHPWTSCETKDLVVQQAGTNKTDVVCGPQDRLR

Row | koff [1] | binding result [2] | binding result [3] | Binder
1 | 8.67e-06 s⁻¹ | – | – | anti-CD40 human monoclonal antibody 3C3 (antibody, human IgG2, kappa, V domains shown, Human IgG2, C-terminal lysine removed; also called anti-CD40 mAb 3C3; CD40 antibody 3C3) VH: QVQLVESGGGVVQPGRSLRLSCAGSGFIFSRYGMYWVRQAPGKGLEWVAVIWYDGSYKYYADSVKGRFTISRDNSKNTLYLQMNSLRAEDTAVYYCARESPWYYFDYWGQGTLVTVSS VL: DIQMTQSPSSLSASVGDRVTITCRASQGISNYLAWYQQKPGKVPKLLIYAASTLQSGVPSRFSGSGSGTDFTLTISSLQPEDVATYYCQKYKSAPFTFGPGTKVDIKR
2 | – | no binding | no binding | anti-CD40 human monoclonal antibody 3G5 (antibody, human IgG2, V domains shown, Human IgG2) VH: QVQLVESGGGVVQPGKSLRLSCAASGFTFSSNGIHWVRQAPGKGLEWVAVIWSDGSNKFYADSVKGRFTISRDNSKNTLYLQMNSLRAEDTAVYYCARASGSGSYYNFFDYWGQGTLVTVSS VL: EIVMTQSPATLSVSPGERATLSCRASQSVRSNLAWYQQKPGQAPRLLIYGASTRATGIPARFSGSGSGTEFTLTINSLQSEDFAVYYCQQHNKWITFGQGTRLEIK
